Here are results for one molecule from article PMC5681435 (2017).

Experiment [1] addresses GSTCDK6 (human, UniProt Q00534 1-326). The experiment can be described thus: SPR. For orientation: In SPR one partner is held on a chip, and binding of the other changes the refractive index at the surface.
The target of experiment [2] is T1, GSTCDK4 (human, UniProt P11802 1-303).
T1 chain: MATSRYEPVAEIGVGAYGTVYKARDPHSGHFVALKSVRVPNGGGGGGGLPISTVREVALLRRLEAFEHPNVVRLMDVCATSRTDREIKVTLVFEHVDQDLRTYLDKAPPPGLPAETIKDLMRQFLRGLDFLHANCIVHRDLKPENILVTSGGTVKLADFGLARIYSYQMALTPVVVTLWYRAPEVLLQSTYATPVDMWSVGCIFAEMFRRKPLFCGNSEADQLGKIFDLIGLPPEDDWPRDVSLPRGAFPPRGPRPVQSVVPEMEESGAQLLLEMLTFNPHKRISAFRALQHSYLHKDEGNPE
The experiment can be described thus: SPR.

GSTCDK6, sequence (Q00534 whole entry): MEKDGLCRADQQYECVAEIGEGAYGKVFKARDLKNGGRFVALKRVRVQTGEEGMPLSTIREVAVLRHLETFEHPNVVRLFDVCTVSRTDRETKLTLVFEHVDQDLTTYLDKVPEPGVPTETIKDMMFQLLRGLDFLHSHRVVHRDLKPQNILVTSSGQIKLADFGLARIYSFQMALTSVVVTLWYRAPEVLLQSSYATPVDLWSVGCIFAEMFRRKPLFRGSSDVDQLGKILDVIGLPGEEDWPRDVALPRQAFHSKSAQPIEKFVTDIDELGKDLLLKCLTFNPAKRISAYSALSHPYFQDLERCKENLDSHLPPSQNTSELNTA

B1: Cdc37 (analyte of the SPR titrations) (natural protein)
chain: MVDYSVWDHIEVSDDEDETHPNIDTASLFRWRHQARVERMEQFQKEKEELDRGCRECKRKVAECQRKLKELEVAEGGKAELERLQAEAQQLRKEERSWEQKLEEMRKKEKSMPWNVDTLSKDGFSKSMVNTKPEKTEEDSEEVREQKHKTFVEKYEKQIKHFGMLRRWDDSQKYLSDNVHLVCEETANYLVIWCIDLEVEEKCALMEQVAHQTIVMQFILELAKSLKVDPRACFRQFFTKIKTADRQYMEGFNDELEAFKERVRGRAKLRIEKAMKEYEEEERKKRLGPGGLDPVEVYESLPEELQKCFDVKDVQMLQDAISKMDPTDAKYHMQRCIDSGLWVPNSKASEAKEGEEAGPGDPLLEAVPKTGDEKDVSV
A word on the Kd: it is the free concentration of one partner at which half of the binding sites on the other are occupied at equilibrium, for simple one-to-one binding. For B1, the Kd is 7 µM in experiment [1] and 0.347 µM in experiment [2].
